Data from US8148141B2, “Peptide-immobilized substrate and method for measuring target protein” (HiPep Laboratories, priority 2001, dated 2012).
Ends that are not written are not given here. Rf = not defined here

Columns and labels:
[1] = target: calmodulin (Homo sapiens, UniProt P0DP23); assay: calmodulin measurement with immobilized fluorescent-labeled α-helix peptide chip; assay type: binding; conditions: carboxyfluorescein peptide; exciting 490 nm, detection 520 nm; in the presence of calmodulin; 25° C., 5 minutes
Protocol: As schematically shown in FIG. 3, calmodulin was measured using a peptide chip in which peptides having α-helix structure, each of which both termini were labeled with different fluorescent labels, were immobilized on a substrate. The procedures were carried out as follows:
The sequence of the core region of the peptides, which forms α-helix structure was designed by molecular modeling using a computer (molecular modeling using Insight II/Discover, Molecular Simulation, U.S.) based on the amino acid sequence of the peptide described in a reference (K. T. O'Neil and W. F. DeGrado, Trend Biochem Sci, 15, 59-64 (1990)). As a result, the amino acid sequence Leu-Lys-Lys-Leu-Leu-Lys-Leu-Leu-Lys-Lys-Leu-Leu-Lys-Leu (SEQ ID NO:1) was employed as the amino acid sequence of the core region. […]

[2] = test system: amylase; assay: amylase measurement with immobilized fluorescent-labeled β-loop peptide chip; assay type: binding; conditions: carboxyfluorescein group; exciting 490 nm, detection 520 nm; amylase 1.0 μM, Tris buffer pH7.4, 150 mM NaCl; 25° C., 5 minutes
Protocol: As schematically shown in FIG. 4, amylase was measured using a peptide chip in which a peptide whose one terminus was labeled with a fluorescent label, which peptide has β-loop structure, was immobilized on a substrate. The procedures were carried out as follows:
As in Example 1, as schematically shown in FIG. 4, a peptide which forms β-loop structure was designed by molecular modeling using a computer based on the amino acid sequence of the peptide described in a reference (F. J. Blanco et al., Eur J Biochem 200, 345-351 (1991), S. Ono et al, Biosci Biotechnol Biochem, 62, 1621-1623 (1998)). As a result, as the amino acid sequence of the core region, the sequence Tyr-Gln-Ser-Trp-Arg-Tyr-Ser-Gln-Ala (SEQ ID NO: 5) was employed. The peptide having this sequence to which Cys residue as an anchor for immobilization was added to one terminus, and to which Lys residue having a fluorescent group Rf (fluorescent group such as carboxyfluorescein in FIG. 4) was added to another terminus, was synthesized. […] When carboxyfluorescein group was used, fluorescence measurement was performed employing exciting wavelength of 490 nm and detection wavelength of 520 nm. By adding an amylase solution (Tris buffer pH7.4, 150 mM NaCl, amylase concentration: 1.0 μM), about ten times increase of the fluorescence intensity was measured, so that the amylase was able to be detected and quantified. […]

increase of the fluorescence intensity [1]	increase of the fluorescence intensity [2]	Substance
about ten	–	Lys(Rf3)-Leu-Lys-Lys-Leu-Leu-Lys-Leu-Leu-Lys-Lys-Leu-Leu-Lys-Leu-Cys-NH2 (K(carboxyfluorescein)LKKLLKLLKKLLKLC-NH2) [peptide containing carboxylfluorescein, Rf3 carboxyfluorescein group]
–	about ten	Lys(Rf)-Tyr-Gln-Ser-Trp-Arg-Tyr-Ser-Gln-Ala-Cys-NH2 (K(Rf)YQSWRYSQAC-NH2; reading uncertain; also: printed as Lys(Rf)-Tyr-Gln-Ser-Trp-Arg-Tyr-Ser-Gln-Ala-Cys-NH2) [SEQ ID NO: 6, Rf fluorescent group such as carboxyfluorescein]
